Data taken from paper doi:10.1101/127183.

Key:
[1] = target: Apoprotein of COCP (Apo-COCP) (Synechocystis); assay: SEC
[2] = target: C-terminal OCP-related Carotenoid-binding Protein (COCP), carotenoid-bound holoform (Synechocystis); assay: cross-linking
[3] = target: Synechocystis OCP^WT apoprotein (Apo-OCP) (Synechocystis) (UniProt P74102); assay: cross-linking
[4] = target: C-terminal OCP-related Carotenoid-binding Protein (COCP), carotenoid-bound holoform (Synechocystis); assay: SEC
[5] = target: COCP with an Ala substitution of Trp-288 (COCP-W288A), carotenoid-bound holoform (Synechocystis); assay: SEC
[6] = target: Synechocystis OCP^WT apoprotein (Apo-OCP) (Synechocystis) (UniProt P74102); assay: SEC
[7] = target: Synechocystis OCP^WT apoprotein (Apo-OCP) (Synechocystis) (UniProt P74102); assay: SEC; remark: listed apart in the source
[8] = target: Synechocystis OCP^WT apoprotein (Apo-OCP) (Synechocystis) (UniProt P74102); assay: SEC-SAXS with right angle light scattering

Chain of UniProt P74102 (P74102 whole entry): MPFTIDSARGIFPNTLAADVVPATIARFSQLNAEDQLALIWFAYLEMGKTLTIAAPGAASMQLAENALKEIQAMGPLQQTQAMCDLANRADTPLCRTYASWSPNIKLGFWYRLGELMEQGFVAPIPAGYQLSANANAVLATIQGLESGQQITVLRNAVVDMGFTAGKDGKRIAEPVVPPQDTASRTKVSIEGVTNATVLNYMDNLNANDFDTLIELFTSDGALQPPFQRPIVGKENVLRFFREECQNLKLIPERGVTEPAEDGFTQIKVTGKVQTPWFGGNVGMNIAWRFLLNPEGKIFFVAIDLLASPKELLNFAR

Work on “Apoprotein of COCP (Apo-COCP) (domain or fragment)” yielded a stoichiometry N [1] of 2.
Work on “C-terminal OCP-related Carotenoid-binding Protein (COCP), carotenoid-bound holoform (domain or fragment)” yielded a stoichiometry N [2] of 2, a stoichiometry N (COCP subunit per Apo-OCP subunit) [3] of 1 and a stoichiometry N [4] of 2.
In the case of “COCP with an Ala substitution of Trp-288 (COCP-W288A), carotenoid-bound holoform (domain or fragment)”, the stoichiometry N [5] is reported as 2.
With “Synechocystis OCP^WT apoprotein (Apo-OCP) (from UniProt P74102 1-317) (natural protein)” the stoichiometry N [6] was 2, the stoichiometry N [7] was 2 and the stoichiometry N [8] was 2.
